This data set concerns the molecule itself.

The term stoichiometry N denotes a count of units in the complex or per binding partner.

B1: PAS domain of Mycobacterium tuberculosis Rv1364c (residues 1-163) (domain or fragment)
chain: MAAEMDWDKTVGAAEDVRRIFEHIPAILVGLEGPDHRFVAVNAAYRGFSPLLDTVGQPAREVYPELEGQQIYEMLDRVYQTGEPQSGSEWRLQTDYDGSGVEERYFDFVVTPRRRADGSIEGVQLIVDDVTSRVRARQAAEARVEELSERYRNVRDSATVMQQ
modifications: Se-Methionine labeled (the crystallised protein only)
With B1, the “stoichiometry N” value was found to be 2.
